Assay results taken from article PMC1933539.

Experiments:
[1] = target: SycO (Yersinia enterocolitica type three secretion chaperone SycO) (Yersinia enterocolitica WA-314); assay: cross-linking; 1.3 mM DSP, 3 μg/μl recombinant SycO in PBS, 30 min at 22°C; Coomassie-stained SDS-PAGE
[2] = target: SycO (Yersinia enterocolitica type three secretion chaperone SycO) (Yersinia enterocolitica WA-314); assay: SEC; analytical gel filtration, SMART system, Superdex 75 PC 3.2/30 in PBS; 50 μg SycO mixed with 50 μg carbonic anhydrase (29 kDa marker); fractions analysed by SDS-PAGE; column calibrated with marker proteins

SycO (Yersinia enterocolitica type three secretion chaperone SycO) (natural protein)
stoichiometry N [1]: 2 | stoichiometry N [2]: 2
